Assay results: IntAct's records for PubMed 21282611

B1: WD-40 repeat-containing protein MSI4 (Arabidopsis thaliana (Mouse-ear cress)), O22607 (parent)
chain: MESDEAAAVSPQATTPSGGTGASGPKKRGRKPKTKEDSQTPSSQQQSDVKMKESGKKTQQSPSVDEKYSQWKGLVPILYDWLANHNLVWPSLSCRWGPQLEQATYKNRQRLYLSEQTDGSVPNTLVIANCEVVKPRVAAAEHISQFNEEARSPFVKKYKTIIHPGEVNRIRELPQNSKIVATHTDSPDVLIWDVETQPNRHAVLGAANSRPDLILTGHQDNAEFALAMCPTEPFVLSGGKDKSVVLWSIQDHITTIGTDSKSSGSIIKQTGEGTDKNESPTVGPRGVYHGHEDTVEDVAFSPTSAQEFCSVGDDSCLILWDARTGTNPVTKVEKAHDADLHCVDWNPHDDNLILTGSADNTVRLFDRRKLTANGVGSPIYKFEGHKAAVLCVQWSPDKSSVFGSSAEDGLLNIWDYDRVSKKSDRAAKSPAGLFFQHAGHRDKVVDFHWNASDPWTIVSVSDDCETTGGGGTLQIWRMSDLIYRPEEEVVAELEKFKSHVMTCASKP
partner: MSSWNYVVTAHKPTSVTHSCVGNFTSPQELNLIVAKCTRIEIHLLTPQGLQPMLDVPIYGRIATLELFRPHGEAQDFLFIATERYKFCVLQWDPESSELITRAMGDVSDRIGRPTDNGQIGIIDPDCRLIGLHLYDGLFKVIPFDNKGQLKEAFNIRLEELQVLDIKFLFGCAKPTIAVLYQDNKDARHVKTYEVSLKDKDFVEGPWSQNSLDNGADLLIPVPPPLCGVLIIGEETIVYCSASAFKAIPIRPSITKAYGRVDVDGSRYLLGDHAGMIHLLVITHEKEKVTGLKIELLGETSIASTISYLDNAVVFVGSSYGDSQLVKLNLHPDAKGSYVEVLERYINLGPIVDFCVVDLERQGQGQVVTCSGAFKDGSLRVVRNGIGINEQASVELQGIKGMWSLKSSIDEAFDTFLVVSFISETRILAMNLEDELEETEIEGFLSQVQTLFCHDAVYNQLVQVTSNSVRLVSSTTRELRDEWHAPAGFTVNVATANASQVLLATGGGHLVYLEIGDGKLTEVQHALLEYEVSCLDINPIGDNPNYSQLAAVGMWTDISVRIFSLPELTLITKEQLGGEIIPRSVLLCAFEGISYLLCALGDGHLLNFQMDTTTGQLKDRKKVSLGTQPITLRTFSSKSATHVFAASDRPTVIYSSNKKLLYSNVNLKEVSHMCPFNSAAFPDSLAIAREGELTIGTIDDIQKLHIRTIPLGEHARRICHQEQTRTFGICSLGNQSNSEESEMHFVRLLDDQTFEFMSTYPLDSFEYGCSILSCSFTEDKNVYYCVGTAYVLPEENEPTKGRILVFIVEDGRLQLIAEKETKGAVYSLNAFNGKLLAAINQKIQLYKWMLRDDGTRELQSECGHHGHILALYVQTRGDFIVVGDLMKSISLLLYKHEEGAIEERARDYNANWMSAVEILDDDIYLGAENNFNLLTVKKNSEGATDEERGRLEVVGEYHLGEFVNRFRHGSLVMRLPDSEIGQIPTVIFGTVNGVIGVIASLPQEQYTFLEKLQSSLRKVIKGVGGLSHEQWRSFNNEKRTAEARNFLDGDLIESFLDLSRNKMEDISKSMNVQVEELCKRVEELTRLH
B2: WD-40 repeat-containing protein MSI4 (Arabidopsis thaliana (Mouse-ear cress)), O22607 (parent)
chain: B1 chain
partner: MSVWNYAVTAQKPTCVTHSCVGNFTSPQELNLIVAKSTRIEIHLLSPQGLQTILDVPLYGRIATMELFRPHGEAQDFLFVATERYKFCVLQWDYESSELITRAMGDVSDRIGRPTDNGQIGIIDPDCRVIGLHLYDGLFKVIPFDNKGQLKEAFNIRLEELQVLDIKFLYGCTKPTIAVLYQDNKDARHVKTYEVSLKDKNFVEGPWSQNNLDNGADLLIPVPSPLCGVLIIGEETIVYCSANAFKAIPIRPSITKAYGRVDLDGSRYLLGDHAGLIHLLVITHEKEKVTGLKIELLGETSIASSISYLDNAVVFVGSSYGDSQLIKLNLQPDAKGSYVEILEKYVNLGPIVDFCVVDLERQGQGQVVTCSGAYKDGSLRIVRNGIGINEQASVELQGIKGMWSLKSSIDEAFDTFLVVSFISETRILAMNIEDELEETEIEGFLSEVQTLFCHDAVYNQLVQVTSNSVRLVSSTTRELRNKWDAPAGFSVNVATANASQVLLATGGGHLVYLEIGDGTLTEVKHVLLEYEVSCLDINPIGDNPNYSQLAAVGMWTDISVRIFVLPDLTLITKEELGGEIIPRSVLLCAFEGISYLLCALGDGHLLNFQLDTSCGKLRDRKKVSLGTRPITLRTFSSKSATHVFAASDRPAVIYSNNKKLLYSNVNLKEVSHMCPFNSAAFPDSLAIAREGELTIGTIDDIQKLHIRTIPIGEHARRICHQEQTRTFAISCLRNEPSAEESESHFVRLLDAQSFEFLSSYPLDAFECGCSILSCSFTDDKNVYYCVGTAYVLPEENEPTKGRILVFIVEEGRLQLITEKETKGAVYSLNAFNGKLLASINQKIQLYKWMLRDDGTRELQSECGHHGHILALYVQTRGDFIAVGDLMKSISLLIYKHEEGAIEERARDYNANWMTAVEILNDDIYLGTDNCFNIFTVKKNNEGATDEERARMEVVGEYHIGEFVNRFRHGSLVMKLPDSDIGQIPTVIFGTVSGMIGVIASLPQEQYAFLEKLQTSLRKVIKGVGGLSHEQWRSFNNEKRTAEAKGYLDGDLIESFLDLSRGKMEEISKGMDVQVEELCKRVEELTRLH

Variants of: B1
Details: with ddb1a_arath DDB1A

Row | effect of a mutation on the interaction | Variant
1 | decreasing interaction strength | MESDEAAAVSPQATTPSGGTGASGPKKRGRKPKTKEDSQTPSSQQQSDVKMKESGKKTQQSPSVDEKYSQWKGLVPILYDWLANHNLVWPSLSCRWGPQLEQATYKNRQRLYLSEQTDGSVPNTLVIANCEVVKPRVAAAEHISQFNEEARSPFVKKYKTIIHPGEVNRIRELPQNSKIVATHTDSPDVLIWDVETQPNRHAVLGAANSRPDLILTGHQDNAEFALAMCPTEPFVLSGGKDKSVVLWSIQDHITTIGTDSKSSGSIIKQTGEGTDKNESPTVGPRGVYHGHEDTVEDVAFSPTSAQEFCSVGDDSCLILWDAHTGTNPVTKVEKAHDADLHCVDWNPHDDNLILTGSADNTVRLFDRRKLTANGVGSPIYKFEGHKAAVLCVQWSPDKSSVFGSSAEDGLLNIWDYDRVSKKSDRAAKSPAGLFFQHAGHRDKVVDFHWNASDPWTIVSVSDDCETTGGGGTLQIWRMSDLIYRPEEEVVAELEKFKSHVMTCASKP [R323H]

Variants of: B2
Details: with ddb1b_arath DDB1B

Row | effect of a mutation on the interaction | Variant
2 | decreasing interaction strength | MESDEAAAVSPQATTPSGGTGASGPKKRGRKPKTKEDSQTPSSQQQSDVKMKESGKKTQQSPSVDEKYSQWKGLVPILYDWLANHNLVWPSLSCRWGPQLEQATYKNRQRLYLSEQTDGSVPNTLVIANCEVVKPRVAAAEHISQFNEEARSPFVKKYKTIIHPGEVNRIRELPQNSKIVATHTDSPDVLIWDVETQPNRHAVLGAANSRPDLILTGHQDNAEFALAMCPTEPFVLSGGKDKSVVLWSIQDHITTIGTDSKSSGSIIKQTGEGTDKNESPTVGPRGVYHGHEDTVEDVAFSPTSAQEFCSVGDDSCLILWDAHTGTNPVTKVEKAHDADLHCVDWNPHDDNLILTGSADNTVRLFDRRKLTANGVGSPIYKFEGHKAAVLCVQWSPDKSSVFGSSAEDGLLNIWDYDRVSKKSDRAAKSPAGLFFQHAGHRDKVVDFHWNASDPWTIVSVSDDCETTGGGGTLQIWRMSDLIYRPEEEVVAELEKFKSHVMTCASKP [R323H]
